Laboratory results taken from patent US20240239894A1, “THERAPEUTIC BINDING MOLECULES” (MedImmune Limited, priority 2020, published 2024).

T1: human B7-H4 antigen (Homo sapiens, UniProt Q7Z7D3)
T1 sequence (Q7Z7D3 25-282): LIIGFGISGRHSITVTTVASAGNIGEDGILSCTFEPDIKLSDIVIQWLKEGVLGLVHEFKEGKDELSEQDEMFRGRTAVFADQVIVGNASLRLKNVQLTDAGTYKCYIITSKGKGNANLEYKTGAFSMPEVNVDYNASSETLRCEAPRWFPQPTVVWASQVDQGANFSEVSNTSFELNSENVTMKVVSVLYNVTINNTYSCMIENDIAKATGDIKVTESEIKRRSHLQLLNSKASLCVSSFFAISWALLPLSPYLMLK

B1: E02-GL-SG3249: clone E02-GL (Maia heavy chain backbone) conjugated to the PBD cytotoxin SG3249 (conjugate)
heavy: QVQLQQWGAGLLKPSETLSLACTVYGGSFSGYYWNWIRQPPGKGLEWIGEINHSGSTSYNPSLKSRVTISVDTSKNQFSLKLSSVTAADTAVYYCARVLYNWNVDSWGQGTLVTVSSASTKGPSVFPLAPSSKSTSGGTAALGCLVKDYFPEPVTVSWNSGALTSGVHTFPAVLQSSGLYSLSSVVTVPSSSLGTQTYICNVNHKPSNTKVDKRVEPKSCDKTHTCPPCPAPELLGGPSCVFLFPPKPKDTLMISRTPEVTCVVVDVSHEDPEVKFNWYVDGVEVHNAKTKPREEQYNSTYRVVSVLTVLHQDWLNGKEYKCKVSNKALPAPIEKTISKAKGQPREPQVYTLPPSREEMTKNQVSLTCLVKGFYPSDIAVEWESNGQPENNYKTTPPVLDSDGSFFLYSKLTVDKSRWQQGNVFSCSVMHEALHNHYTQKSLSLSPGK
light: DIQMTQSPSSLSASVGDRVTITCRASQDIRNDVGWYQQKPGKAPKRLIYAASRLQSGVPSRFSGSGSGTEFTLTISSLQPEDFATYYCLQHNSYPRTFGQGTKVEIKRTVAAPSVFIFPPSDEQLKSGTASVVCLLNNFYPREAKVQWKVDNALQSGNSQESVTEQDSKDSTYSLSSTLTLSKADYEKHKVYACEVTHQGLSSPVTKSFNRGEC
B2: E02-GL: germlined ZY0EQD-E02, VH SEQ ID NO: 45, VL SEQ ID NO: 34; antibody intermediate of E02-GL-SG3932 (antibody, V domains shown)
VH: QVQLQQWGAGLLKPSETLSLACTVYGGSFSGYYWNWIRQPPGKGLEWIGEINHSGSTSYNPSLKSRVTISVDTSKNQFSLKLSSVTAADTAVYYCARVLYNWNVDSWGQGTLVTVSS
VL: DIQMTQSPSSLSASVGDRVTITCRASQDIRNDVGWYQQKPGKAPKRLIYAASRLQSGVPSRFSGSGSGTEFTLTISSLQPEDFATYYCLQHNSYPRTFGQGTKVEIK

Legend:
[1] = test system: HT29 cell line expressing human B7-H4, SKBR3, HCC1569; assay: Cytotoxicity assay versus 1D11 ADC; type: cell-based; settings: six days
Procedure: Cell lines were detached from tissue culture flasks by accutase (Gibco, Paisley, UK), pelleted by centrifugation, and resuspended in growth media (McCoy's 5A,10% FBS, 400 μg/mL G418 for HT29-hB7H4 clone 44, McCoy's 5A, 10% FBS for SKBR3 and RPMI-1640, 10% FBS for HCC1569). Viable cells were counted by trypan blue exclusion using a haemocytometer. Cell densities were adjusted to 2.7×10^4 cells/mL in growth media. 75 μL/well of the cell suspension (2×10^3 cells) was added to 96-well white walled clear bottom tissue culture treated plates and cultured overnight in a humidified tissue culture incubator at 37° C. in 5% CO2. […]
Cells were cultured in the presence of ADCs or DPBS (mock-treated control cells) for six days. Cell viability was assessed using CellTiter-Glo® assay: 100 μL of CellTiter-Glo® (Promega, Southampton, UK) was added to each well. […] Luminescence was measured using an Envision multilabel plate reader (Perkin Elmer, Seer Green, UK). The potency for test article antibodies (e.g. 1D11-MMAE or E02-GL-MMAE or E02-GL-SG3249) was determined by generating half-maximal inhibitory concentration (IC50) values using a nonlinear regression model [log agonist vs. response—variable slope (three parameters)] in GraphPad Prism, version 7 (GraphPad Software, La Jolla, CA) and presented as percent cell viability relative to Mock-treated control cells — […]

[2] = test system: HT29 hB7H4 clone 4; assay: E02-GL MESF on cell line; type: cell-based, human
[3] = target: T1, human B7-H4 antigen; assay: SPR, antibody capture method; type: binding
Procedure: To assess whether conjugation of the topoisomerase 1 linker-warhead affected binding properties of the E02-INT antibody, the binding affinity of E02-INT and E02-GL-SG3932 were measured using a DELFIA-ELISA method and an SPR method. […] The kinetic rate constants (kon and koff) and equilibrium dissociation constants (KD) of E02-INT and E02-GL-SG3932 for human B7-H4 antigen was also determined by SPR, using an antibody capture method.

[4] = test system: Zr75-1; assay: E02-GL MESF on cell line; type: cell-based
[5] = test system: MX-1 breast cancer xenograft; assay: Xenograft efficacy; type: in vivo, CB-17 SCID mice; settings: 10 mg/kg
Procedure: The antitumor activity of antibody intermediate E02-INT and E02-GL-SG3932 was investigated in human tumor xenograft mouse models using immunodeficient CB-17 SCID mice.
The effect of E02-GL-SG3932, the isotype-matched control ADC NIP228-SG3932, and E02-INT, the antibody intermediate of E02-GL-SG3932 was evaluated in the MX-1 breast cancer xenograft model. Animals were injected SC with MX-1 cells and after tumors grew in volume to a mean of 270 mm3, animals were randomized and each mouse received an IV injection of test or control articles.

[6] = test system: HEK 293 JI hB7H4 pool; assay: E02-GL MESF on cell line; type: cell-based; settings: has some negative cells in pool
[7] = test system: OVCAR4; assay: E02-GL MESF on cell line; type: cell-based, human

Molecule	cytotoxicity potency compared with 1D11 conjugated to (A114C-) MMAE [1]	E02-GL MESF [2]	Ka [3]	Kd [3]	Kd (s^−1) [3]	Rmax (RU) [3]	E02-GL MESF [4]	TGI [5]	E02-GL MESF [6]	E02-GL MESF [7]
B1	superior cytotoxicity potency									
B2		71,928 MESF	93800 M⁻¹ s⁻¹	31.1 nM	0.00292 s⁻¹	56.8 RU	80,699 MESF	−1%	2,481,266 MESF	261,997 MESF
